Measurements as given in publication PMC10283433.

Legend:
[1] = target: NXT007 in the dKiHv14 format (anti-FIXa/FX bispecific humanized IgG4, kappa/lambda) (human); assay: SPR
[2] = target: anti-FX antibodies with the V1 or V2 mutation pair; assay: SPR

Row | FcRn binding ability after acid treatment, relative to the initial sample [1] [%] | fold increase in KD against the parent [2] [times] | Substance
1 | 80 |  | recombinant human FcRn (from UniProt P55899 24-365) (receptor)
2 |  | 1.3 to 1.4 | human FX (Enzyme Research Laboratories, HFX 1010) (natural protein)
